The values that follow come from patent publication US20240254227A1 (Alector, published 2024).

The target of experiment [1] is T1, huCD300LB-DAP12 fusion constitutively expressed on 293 Freestyle (Freestyle HEK) cells (human).
T1 construct: also called Human CD300LB-DAP12 chimera
In words: flow cytometry, geometric mean (APC-A), FreeStyle HEK cells expressing huCD300LB. Here is the method: Other members of the human CD300 family share sequence homology with human CD300LB. Thus, counter screens against binding of the anti-CD300LB antibodies to huCD300A, huCD300C, huCD300LD, huCD300E, huCD300LF, and huCD300G by stable overexpression in Freestyle HEK cells (generation of which is described above) were performed as follows. Cells were counted and labeled with 200 nM CFSE, 500 nM VioBlue, or a combination of the two to discriminate between CD300LB, Parental cells, and the other CD300 family members. Cells were washed thoroughly with PBS containing 2% fetal bovine serum then resuspended at a total of 240,000 cells per well. Hybridoma supernatants (100 L) or purified antibodies at various concentrations were added and incubated for one hour before the cells were washed twice again and stained with an APC-labeled anti-human or anti-mouse secondary antibody. Cells were then analyzed using a BD FACSCanto II. Anti-CD300LB antibodies were analyzed for specific binding to human CD300LB by FlowJo software by gating on live cells, then the APC geometric mean fluorescence intensity (gMFI) calculated for each labeled population. The results are shown in […]
In general terms: In flow cytometry, cells or beads pass a laser one at a time.

In experiment [2] the target is T2, recombinant human CD300LB overexpressed on Jurkat cells (human, UniProt A8K4G0 18-201).
T2 construct: also called huCD300LB; huCD300LB-expressing Jurkat cells
T2 sequence: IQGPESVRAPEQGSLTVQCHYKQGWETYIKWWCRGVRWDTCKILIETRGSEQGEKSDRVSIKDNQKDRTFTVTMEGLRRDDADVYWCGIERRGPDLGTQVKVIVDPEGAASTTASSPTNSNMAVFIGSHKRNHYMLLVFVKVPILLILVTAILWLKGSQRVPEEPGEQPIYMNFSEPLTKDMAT
Kind of experiment: flow cytometry, geometric mean (APC-A), Jurkat cells overexpressing huCD300LB. The method, then:
Purified anti-CD300LB antibodies of the present disclosure were evaluated for their binding affinity to either Jurkat cells overexpressing recombinant huCD300LB or BaF/3 cells overexpressing recombinant muCD300LB. Binding of anti-CD300LB antibodies to the cells was determined as follows. Cells were harvested, washed, and labeled with propidium iodide for viability discrimination. After washing the cells with PBS, 1×10⁵ cells were aliquoted per well in 96-well U-bottom plates and incubated with 100 μL of purified anti-CD300LB antibody at various concentrations in FACS buffer (PBS+2% FBS). After this primary incubation, the supernatant was removed via centrifugation, the cells washed twice with 150 μL of ice-cold FACS buffer, and then incubated with the appropriate secondary antibody on ice for 30 minutes. Following the secondary antibody incubation, the cells were again washed twice with ice-cold FACS buffer and resuspended in a final volume of 200 L FACS buffer. Flow cytometry analysis was then performed using the FACSCanto system (BD Biosciences).
To determine affinity, antibodies at increasing concentrations were used to stain Jurkat cells overexpressing huCD300LB and geometric MFI values measured by the flow cytometer were analyzed on Prism (Graphpad) software.

Experiment [3] concerns the target T3, murine CD300LB stably expressed on Jurkat cells (mouse, UniProt Q3U497 18-209).
T3 construct: also called muCD300LB; mouse CD300LB
T3 sequence: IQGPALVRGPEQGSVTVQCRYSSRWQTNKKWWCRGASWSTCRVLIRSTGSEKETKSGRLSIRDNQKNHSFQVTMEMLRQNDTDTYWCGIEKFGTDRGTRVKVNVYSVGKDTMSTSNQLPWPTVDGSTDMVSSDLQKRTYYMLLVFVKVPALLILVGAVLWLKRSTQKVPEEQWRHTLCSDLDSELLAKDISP
Kind of experiment: flow cytometry, stable Jurkat cells.

Another experiment addresses T4, murine CD300LB-Fc (mouse).
T4 construct: mouse IgG2a-Fc fusion (R&D Systems); the entry is the whole fusion chain; also called mCD300LB; Mouse CD300LB-Fc
T4 chain: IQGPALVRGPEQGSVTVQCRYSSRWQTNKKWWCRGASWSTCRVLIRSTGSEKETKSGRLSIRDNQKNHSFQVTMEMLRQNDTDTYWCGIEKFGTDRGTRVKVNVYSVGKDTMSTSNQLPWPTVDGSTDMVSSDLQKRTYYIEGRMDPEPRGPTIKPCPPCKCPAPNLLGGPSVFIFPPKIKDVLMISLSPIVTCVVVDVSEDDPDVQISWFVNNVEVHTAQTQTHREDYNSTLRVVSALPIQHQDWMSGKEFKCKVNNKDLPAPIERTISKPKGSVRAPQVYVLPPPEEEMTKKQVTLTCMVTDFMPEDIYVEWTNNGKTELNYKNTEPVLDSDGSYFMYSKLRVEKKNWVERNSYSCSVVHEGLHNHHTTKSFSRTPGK
Kind of experiment: SPR (Carterra LSA), antibody immobilised, Fc fusion at 300 or 600 nM. Here is the method:
Binding of mouse anti-CD300LB IgG1 antibodies of the present disclosure to human and murine CD300 orthologs were evaluated by surface plasmon resonance (SPR) using a Carterra LSA instrument (Carterra, Salt Lake City, UT). […] A HC200M sensor chip (Carterra) was activated using the single channel flow cell with a 7-minute injection of a 1:1:1 mixture of 100 mM MES pH 5.5, 100 mM sulfo-NHS, 400 mM EDC (all reconstituted in MES pH 5.5; 100 μL of each mixed in vial immediately before running assay). After switching to the multi-channel array flow cell, the antibodies were injected over the activated chip in a 96-spot array for 10 minutes. The remaining unconjugated active groups on the chip were then blocked by injecting 1M Ethanolamine pH 8.5 (Carterra) for 7 minutes using the single channel flow cell. After priming with running buffer (HBS-TE, Carterra) with 0.5 mg/ml BSA (Sigma), the immobilized anti-CD300LB antibodies were tested for their ability to bind human and mouse recombinant CD300LB extracellular domains. Human CD300 family members and mouse CD300A were hIgG1-Fc fusions, while mouse CD300LB, mouse CD300C, mouse CD300D, and mouse CD300E were mouse IgG2a-Fc fusions (R&D Systems). Binding was assessed by injecting each analyte over the entire antibody array using the single channel flow cell. CD300 analytes were diluted to 300 nM or 600 nM in running buffer and injected in series without regeneration. Two or three buffer blanks were run between each mouse or human ortholog, respectively. Data were processed and analyzed using NextGenKIT high-throughput kinetics analysis software (Carterra).
Results of anti-CD300LB antibody binding to human CD300 family members is provided below in Table 7.

Positions count from the first letter of the chain named.

B1: anti-CD300LB antibody CD-07 (antibody, V domains shown)
VH: QVQLVQSGAEVKKPGASVKVSCKASGYTFTNYRMHWVRQAPGQGLEWMGWINPNSGGTIYAQKFQGRVTMTRDTSTSTVYMELSSLRSEDTAVYYCARDLDYWGQGTLVTVSS
VL: DIQMTQSPSSLSASVGDRVTITCQASQDISNYLNWYQQKPGKAPKLLIYGASSLQSGVPSRFSGSGSGTDFTLTISSLQPEDFATYYCQQSYSTPWTFGPGTKVEIK
In the case of B1, in experiment [1], the EC50 (read off the curve) (in general, the midpoint of the concentration-response curve) is around 20 nM.

B2: anti-CD300LB antibody CD-05 (antibody, V domains shown)
VH: QVQLVQSGAEVKKPGASVKVSCKASGYTFSRYYINWVRQAPGQGLEWMGWINPNSGGTNYAQKFQGRVTMTRDTSTSTVYMELSSLRSEDTAVYYCTTDQLRFGKTGPYYGMDVWGQGTTVTVSS
VL: B1 VL with Q24R, D28N, S30G, N31T, G50A, T94D, P95T, W96L, P100G
B2: in experiment [2], the 50% effective concentration (EC50 (read off the curve)) is around 20 nM.

B3: anti-CD300LB antibody CD-02 (antibody, V domains shown)
VH: QVQLQQPGAELVRPGSSVKLSCQASGYTFTNYWMHWVRQRPIQGLEWIGNIDPSDSETHYNQKFKDRATLTVDKSSSTAYMQLSSLTSEDSAVYYCARSGVYDDEGGDYWGQGTTLTVSS
VL: ENVLTQSPAIMSASPGEKVTMTCSASSSVSYIHWYQQKSSTSPKLWIYDTSKLASGVPGRFSGSGSGNSYSLTISSMETEDVATYYCFQGSGYPLTFGAGTKLELK
Consider B3, for which the binding result in experiment [3] is recorded as “no binding (tested: 10 ug/mL)”; in experiment [1] it was “no binding”.

B4: anti-CD300LB antibody CD-01 (antibody, V domains shown)
VH: RVQLQQSGAELVRPGASVTLSCKASGFTFTDFEMHWVKKTPVHGLEWIGAIDPESGNTAYNQKFRGKATLTADKSSSTAYMELRYLTSEDSAVYYCTPLISGADYWGQGTTLTVSS
VL: DVVMTQSPLSLPVSLGDQASISCRSSQSLVHSDGNTYLYWYLQKPGQSPKLLIYKVSNRFSGVPDRFSGSGSGTDFTFKISRVGAEDLGVYFCSQSTHVPWTFGGGTKLEII
Consider B4, for which the “SPR binding (control subtracted)” value with murine CD300LB-Fc worked out at 29. In addition, the binding result in experiment [1] was “no binding”.
